From the supplement of paper PMC5998384

Key:
HeLa Kyoto [1] = assay: solubility in G1/S (NP-40 vs SDS abundance) (log2 ratio); higher = more soluble; details: cell cycle stage: G1/S
HeLa Kyoto [2] = assay: melting temperature (median over replicates), in situ; higher = more thermally stable
HeLa Kyoto [3] = assay: solubility change mitosis vs G1/S (difference of NP-40 vs SDS log2 ratios) (log2 ratio difference); higher = more soluble in mitosis
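For melting temperature (median over replicates), in situ in this document: HeLa Kyoto cells synchronized by double thymidine or nocodazole block, proteins quantified by TMT10plex mass spectrometry, three independent biological replicates.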
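For solubility change mitosis vs G1/S (difference of NP-40 vs SDS log2 ratios) in this document: synchronized HeLa Kyoto cells (double thymidine block for G1/S, nocodazole release for mitosis), protein amounts in NP-40 versus SDS lysates quantified by mass spectrometry, three biological replicates.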
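For solubility in G1/S (NP-40 vs SDS abundance) in this document: HeLa Kyoto cells arrested at G1/S by double thymidine block, proteins quantified by TMT10plex mass spectrometry in mild NP-40 versus SDS extracts, three biological replicates.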

Sequence	solubility in G1/S (log2) (HeLa Kyoto [1])	melting temperature (HeLa Kyoto [2]; cell cycle stage: G1/S) [°C]	melting temperature (HeLa Kyoto [2]; cell cycle stage: mitosis) [°C]	solubility change mitosis (log2) (HeLa Kyoto [3])
MPIVDKLKEALKPGRKDSADDGELGKLLASSAKKVLLQKIEFEPASKSFSYQLEALKSKYVLLNPKTEGASRHKSGDDPPARRQGSEHTYESCGDGVPAPQKVLFPTERLSLRWERVFRVGAGLHNLGNTCFLNATIQCLTYTPPLANYLLSKEHARSCHQGSFCMLCVMQNHIVQAFANSGNAIKPVSFIRDLKKIARHFRFGNQEDAHEFLRYTIDAMQKACLNGCAKLDRQTQATTLVHQIFGGYLRSRVKCSVCKSVSDTYDPYLDVALEIRQAANIVRALELFVKADVLSGENAYMCAKCKKKVPASKRFTIHRTSNVLTLSLKRFANFSGGKITKDVGYPEFLNIRPYMSQNNGDPVMYGLYAVLVHSGYSCHAGHYYCYVKASNGQWYQMNDSLVHSSNVKVVLNQQAYVLFYLRIPGSKKSPEGLISRTGSSSLPGRPSVIPDHSKKNIGNGIISSPLTGKRQDSGTMKKPHTTEEIGVPISRNGSTLGLKSQNGCIPPKLPSGSPSPKLSQTPTHMPTILDDPGKKVKKPAPPQHFSPRTAQGLPGTSNSNSSRSGSQRQGSWDSRDVVLSTSPKLLATATANGHGLKGNDESAGLDRRGSSSSSPEHSASSDSTKAPQTPRSGAAHLCDSQETNCSTAGHSKTPPSGADSKTVKLKSPVLSNTTTEPASTMSPPPAKKLALSAKKASTLWRATGNDLRPPPPSPSSDLTHPMKTSHPVVASTWPVHRARAVSPAPQSSSRLQPPFSPHPTLLSSTPKPPGTSEPRSCSSISTALPQVNEDLVSLPHQLPEASEPPQSPSEKRKKTFVGEPQRLGSETRLPQHIREATAAPHGKRKRKKKKRPEDTAASALQEGQTQRQPGSPMYRREGQAQLPAVRRQEDGTQPQVNGQQVGCVTDGHHASSRKRRRKGAEGLGEEGGLHQDPLRHSCSPMGDGDPEAMEESPRKKKKKKRKQETQRAVEEDGHLKCPRSAKPQDAVVPESSSCAPSANGWCPGDRMGLSQAPPVSWNGERESDVVQELLKYSSDKAYGRKVLTWDGKMSAVSQDAIEDSRQARTETVVDDWDEEFDRGKEKKIKKFKREKRRNFNAFQKLQTRRNFWSVTHPAKAASLSYRR [USP36]	-1.41	52.3	52.2	0.946
MPKTMHFLFRFIVFFYLWGLFTAQRQKKEESTEEVKIEVLHRPENCSKTSKKGDLLNAHYDGYLAKDGSKFYCSRTQNEGHPKWFVLGVGQVIKGLDIAMTDMCPGEKRKVVIPPSFAYGKEGYAEGKIPPDATLIFEIELYAVTKGPRSIETFKQIDMDNDRQLSKAEINLYLQREFEKDEKPRDKSYQDAVLEDIFKKNDHDGDGFISPKEYNVYQHDEL [FKBP7]	0.654	55	55.8	0.0889
MPVTVTRTTITTTTTSSSGLGSPMIVGSPRALTQPLGLLRLLQLVSTCVAFSLVASVGAWTGSMGNWSMFTWCFCFSVTLIILIVELCGLQARFPLSWRNFPITFACYAALFCLSASIIYPTTYVQFLSHGRSRDHAIAATFFSCIACVAYATEVAWTRARPGEITGYMATVPGLLKVLETFVACIIFAFISDPNLYQHQPALEWCVAVYAICFILAAIAILLNLGECTNVLPIPFPSFLSGLALLSVLLYATALVLWPLYQFDEKYGGQPRRSRDVSCSRSHAYYVCAWDRRLAVAILTAINLLAYVADLVHSAHLVFVKV [MYADM]	-0.352	52.9	53	-0.0179
MQAALEVTARYCGRELEQYGQCVAAKPESWQRDCHYLKMSIAQCTSSHPIIRQIRQACAQPFEAFEECLRQNEAAVGNCAEHMRRFLQCAEQVQPPRSPATVEAQPLPAS [CHCHD5]	-0.11	53.5	50.5	0.0671
MQSPAVLVTSRRLQNAHTGLDLTVPQHQEVRGKMMSGHVEYQILVVTRLAAFKSAKHRPEDVVQFLVSKKYSEIEEFYQKLSSRYAAASLPPLPRKVLFVGESDIRERRAVFNEILRCVSKDAELAGSPELLEFLGTRSPGAAGLTSRDSSVLDGTDSQTGNDEEAFDFFEEQDQVAEEGPPVQSLKGEDAEESLEEEEALDPLGIMRSKKPKKHPKVAVKAKPSPRLTIFDEEVDPDEGLFGPGRKLSPQDPSEDVSSVDPLKLFDDPDLGGAIPLGDSLLLPAACESGGPTPSLSHRDASKELFRVEEDLDQILNLGAEPKPKPQLKPKPPVAAKPVIPRKPAVPPKAGPAEAVAGQQKPQEQIQAMDEMDILQYIQDHDTPAQAAPSLF [HS1BP3]	0.292	49.7	50.5	0.119
